Measurements taken from PMC11856044.

Target: Bombyx mori ribosomal protein RPL12 (Bombyx mori (endogenous in BmN))
Test: Western blot of total cell proteins; total proteins of BmN cells (mock, control siRNA, BmRPL12 siRNA), anti-RPL12 polyclonal antibody; monomer and dimer bands

Bombyx mori ribosomal protein RPL12 (natural protein)
stoichiometry N: 2
